Test results: the supplement of paper PMC12042874
± gives the uncertainty stated by the source.

Assay: amyloid nucleation score (Sup35N fusion, yeast selection) (log enrichment); library NNK2; higher = more nucleation; inactive = no reads after selection
Outline: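 In psi-negative yeast, Sup35N fusions carrying peptides of 20 random codons were induced with 100 μM copper sulfate for 24 hours. The cells then grew 7 days at 30°C on medium lacking adenine and uracil, and plasmid inserts from input and output were Illumina-sequenced, excluding sequences with under 100 input reads. Nucleation score is the DiMSum log enrichment of output over input reads, centred on the mode score of non-aggregating sequences.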

Substance | amyloid nucleation score
ANSAYCIGLCLGNCFMSYFC | 7.452 ± 0.043
ANSPVGHEPGFECKSGFRET | 0.168 ± 0.57
ANTFIPFFGISSVRSGRNAA | 2.65 ± 0.11
ANTVHLKMLANSRSPDGTFR | 0.441 ± 0.32
ANVENVAYSDTISRSDSDVT | 0.805 ± 0.66
APFDMVGVTVLDSPVMYTNA | 0.512 ± 0.43
APVMYVT | 0.057 ± 0.48
AQWCEGVVSLQLSWVVCVEG | 1.16 ± 0.34
ARCDCGFVRGGNCVVQYCLS | 7.529 ± 0.04
ARECNY | 3.78 ± 0.063
ARLKLDRRPMKSSMVCIHSA | 6.16 ± 0.089
ARVRVYRWWTLATTWGRVGF | 2.85 ± 0.14
ASGVYHDSFRRLCCMGDLSC | -0.121 ± 0.18
ASHRVNGEVRYRRWSVLKRM | 0.839 ± 0.24
ASMYLNSSH | inactive
ASNAFRSGYWQGERHERMRL | 1.07 ± 0.14
ASSIG | 0.072 ± 0.26
ASSSGPGCSLVSSVHASRQG | 1.54 ± 0.52
ASVPCVIMGRASRPRVPRMS | 1.42 ± 0.29
ASWIAGYITMHTISSFP | 0.056 ± 0.36
ATARS | 0.701 ± 0.29
ATHVCVGFTYGFWW | 2.4 ± 0.14
ATKVISALSIRMRRK | 1.32 ± 0.3
ATRCGDFDQACHSGIT | 0.749 ± 0.28
ATVRFWWKFVYACGMAWWWV | 0.001 ± 0.55

Substance | amyloid nucleation score
AVCTESMLWS | 0.057 ± 0.16
AVDSHVIYSV | -0.96 ± 0.45
AVPMMSWSFIVSYVGRNNSM | 1.7 ± 0.19
AVSFWSIF | 0.307 ± 0.64
AVVFSNCGCFSMKFYMVVAT | -2.06 ± 0.48
AVWCDFHSERAMCVVGM | 5.249 ± 0.043
AWCFSWHQKLLAR | 0.471 ± 0.36
AWDGIHTMMITYLKFIEKCQ | -1.31 ± 0.62
AWGGSRNRMYFYHSPVRFFE | 4.5 ± 0.088
AWGYDKAVIFGAVDLQHVGT | 0.062 ± 0.79
AYAKGYCLLSPVLDWRLHFS | 2.52 ± 0.13
AYCFVGFALVRCVGANDVRR | 1.6 ± 0.22
AYEGFISYLIYLSIRNSSPC | inactive
AYHNLRN | 0.191 ± 0.63
AYIDVTWWPFVFLDQVMYTT | 0.089 ± 0.48
AYINRHVEWRCTVRTVALSS | 0.664 ± 0.38
AYIVDTKVT | 1.11 ± 0.68
AYSSMCSTMRNKCCL | 0.504 ± 0.6
AYTMQLNHRLVLSVSS | 0.219 ± 0.74
CAGMWRFMGMVFGISTLFQC | -1.44 ± 0.41
CAKGPKSWQNGNE | 0.626 ± 0.8
CANFRSGYGA | -0.241 ± 0.35
CAPDVQWFSKIAFE | 1.1 ± 0.53
CAPFVRDFINMVCRRMPNTN | 0.566 ± 0.66
CARSWLRVLGTSPEKMKG | 0.627 ± 0.74

Substance | amyloid nucleation score
CASAFCLTRE | 4.49 ± 0.057
CASMVIMG | inactive
CCGGVRMMEELRCSTWSRVV | 0.868 ± 0.26
CCQSFNVNRSTLNNLGRSYL | 0.848 ± 0.16
CCTTIEGDTLCGCFWD | 10.08 ± 0.038
CCVGGVPV | 2.57 ± 0.083
CCVVIKN | 6.08 ± 0.079
CDFLWWPTQFANRRTKVGVW | 0.083 ± 0.76
CDKFFLDF | -1.9 ± 0.48
CDLKERTEYMHFLLTFYLVR | -0.891 ± 0.36
CDSVLPRLLNYKYTKNK | 0.14 ± 0.63
CECVSSCVYSVILLGCTRSF | inactive
CEDSCSSCNGILLDVREERS | 1.89 ± 0.076
CFDEFTLCKVLWNMFSTFLG | -0.707 ± 1.1
CFGVRDSGRYFDTLSNVRSR | 1.11 ± 0.68
CFKLTNINAL | inactive
CFLMNKVT | -1.5 ± 0.49
CFLVDFHVARSVDSYVELGS | -0.436 ± 1.1
CFRKFRMEEPLGIRFSHLDT | -0.345 ± 0.21
CFSLYSCKDSINDMLKRSQN | -1.12 ± 1.1
CFSSIQIRDKTVVGDSWMFR | 3.58 ± 0.14
CFVKRLHVLWLSKTVCRAVL | 0.113 ± 0.21
CFWWNPGSILIRWCLKVLPG | -1.59 ± 0.54
CGLNCVAGGREEDRVYVLSS | 0.088 ± 0.22
CGMISLSSNVMSFALPFLYY | 0.824 ± 0.15

Substance | amyloid nucleation score
CGNISQVKEDLRMTTLIFRV | inactive
CGNNCTQYRHDWWGGMKLRD | 2.38 ± 0.085
CGQLSVWYEGMINVSCFLEI | -1.4 ± 0.75
CGRLGLHYQCMLCCGIGSIL | 2.23 ± 0.27
CGRRILSRWVITLLVPGGSF | inactive
CGRVTTFSLRNVARVCVSAF | -0.308 ± 0.25
CHCWSELIQIFII | 5.86 ± 0.061
CHSGVFRVKSCTEYRMGLYS | inactive
CHVCFRETARYMCVGWYYGS | -0.283 ± 0.65
CHVVVVLEF | 2.71 ± 0.078
CHYKMHSLHTARFEFFVMLF | -0.413 ± 0.41
CICLIMRTKTCELGSLLG | 5.781 ± 0.046
CIDRFHTVPLAVHSVCGILL | -0.319 ± 0.76
CIFWVRCKFYGNLNFGCLYD | 7 ± 0.078
CIGYKLLLGELLAP | 0.137 ± 0.5
CIIVISFLTITWKCAEPELQ | inactive
CIMCGALEIGFGIIRGWEDF | 9.421 ± 0.067
CIMPVCVYDCLPLGRGIYWR | 0.745 ± 0.22
CIQTSSREVSFRSIATDGST | 4.27 ± 0.047
CISVPMIFDFTIWA | 6.64 ± 0.071
CITVFAVINMQSAAVSCKQV | 6.72 ± 0.07
CIVCFVFMLKRALLLHFCIA | -0.81 ± 1
CIVSVNERRVVFGAVNTEFR | 4.79 ± 0.058
CKFWYLARWWIFLWSPRYK | -0.153 ± 1.1
CKLMMGVFVLTVNTCGDVSS | 5.33 ± 0.054

Substance | amyloid nucleation score
CKLTRGSPMSYSEVR | -0.188 ± 0.29
CKRQYHYLIWRMMEMSPGVL | 5.07 ± 0.058
CKRSTH | -0.461 ± 0.49
CKTHPKKNSGFWRKLKGCLG | 3.17 ± 0.15
CKVHVQVNTESYTGIVMTYY | 4.65 ± 0.039
CLFSILLVMIPASFYTAMWL | -0.588 ± 1.1
CLGKSRYCISDWKFLSLWPN | -0.932 ± 0.55
CLGNVCNSFNWLDVRACVWR | 1.52 ± 0.23
CLIDFWKRDFKSAVDSKGTA | 0.125 ± 0.65
CLKGKYESYNADVNAHYSLA | 0.13 ± 0.45
CLLIGLAMGMVCSLPLGRIL | 0.123 ± 1
CLLVSEQRSRRHRRGALCIG | 0.872 ± 0.32
CLNQSLRNTSWKHMAEPKKR | 3.82 ± 0.12
CLPCCGAFNKCANRYQVSEM | -0.249 ± 0.39
CLRILGDISSFRGMRHTTLH | 0.042 ± 1.1
CLSFIILMWLDRNVGMVQI | -0.579 ± 0.49
CLSNL | -0.864 ± 0.48
CLTTRTSGHNGYQRHDLI | inactive
CLVKCAMPILVINICAG | 7.82 ± 0.061
CMGNSYFMFNSYANFKNNWA | 5.54 ± 0.093
CMISTDLKVTRALSTHKNCI | 0.02 ± 0.56
CMLASSFMVVRSRLLSSRAM | 1.14 ± 0.32
CMNTISVLSECASTRQTC | -0.068 ± 0.31
CMPMISRVLGCDNSYYMSSA | 0.029 ± 0.4
CMRGLVKAGMIMTVFDRLSY | -1.22 ± 1.1
